In the supplement of paper PMC9233669:
Variants at the floor of the assay were thinned out.

Columns and labels:
biotinyl-Phe-oxazolone = test: self-aminoacylation, catalytic enhancement (BFO) (fold over background); higher = more active; k-Seq, kA / k0A0; sequences stand for … in GGGAAUGGAUCCACAUCUACGAAUUC…UUCACUGCAGACUUGACGAAGCUG
Method in brief: (§1)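 Working in 50 μL HEPES/NaCl/KCl/MgCl2/CaCl2 buffer with 5% acetonitrile at pH 6.9–7.0, mutagenized RNA pools (0.43 μM; 21-nt variable region) were reacted with 2–1250 μM of each biotinyl-aminoacyl-oxazolone for 90 minutes at room temperature. Streptavidin capture followed, with quantification by triplicate qPCR and Illumina sequencing. Catalytic enhancement is reported as median kA over the uncatalyzed rate, the low-activity peak of a bimodal Gaussian fit to the data.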

biotinyl-Ile-oxazolone = test: self-aminoacylation, catalytic enhancement (BIO) (fold over background); higher = more active; k-Seq, kA / k0A0; sequences stand for … in GGGAAUGGAUCCACAUCUACGAAUUC…UUCACUGCAGACUUGACGAAGCUG
Method in brief: as §1

biotinyl-Met-oxazolone = test: self-aminoacylation, catalytic enhancement (BMO) (fold over background); higher = more active; k-Seq, kA / k0A0; sequences stand for … in GGGAAUGGAUCCACAUCUACGAAUUC…UUCACUGCAGACUUGACGAAGCUG
Method in brief: as §1

biotinyl-Val-oxazolone = test: self-aminoacylation, catalytic enhancement (BVO) (fold over background); higher = more active; k-Seq, kA / k0A0; sequences stand for … in GGGAAUGGAUCCACAUCUACGAAUUC…UUCACUGCAGACUUGACGAAGCUG
Method in brief: as §1

biotinyl-Leu-oxazolone = test: self-aminoacylation, catalytic enhancement (BLO) (fold over background); higher = more active; k-Seq, kA / k0A0; sequences stand for … in GGGAAUGGAUCCACAUCUACGAAUUC…UUCACUGCAGACUUGACGAAGCUG
Method in brief: as §1

biotinyl-Trp-oxazolone = test: self-aminoacylation, catalytic enhancement (BWO) (fold over background); higher = more active; k-Seq, kA / k0A0; sequences stand for … in GGGAAUGGAUCCACAUCUACGAAUUC…UUCACUGCAGACUUGACGAAGCUG
Method in brief: as §1

Sequence	self-aminoacylation (biotinyl-Phe-oxazolone)	self-aminoacylation (biotinyl-Ile-oxazolone)	self-aminoacylation (biotinyl-Met-oxazolone)	self-aminoacylation (biotinyl-Val-oxazolone)	self-aminoacylation (biotinyl-Leu-oxazolone)	self-aminoacylation (biotinyl-Trp-oxazolone)
AUUCUCCUAGCUCAUCGGGUG [Fam2.2 aminoacylation ribozyme variant]	23.2	3.32	3.24	3.75	3.79	4.24
ACACACUUCAAGCAAUCUGUC [Fam1B.1 aminoacylation ribozyme variant]	1.39	0.759	0.567	1.02	0.58	0.683
CCACACUUCAAGCGAUCGGGC [Fam1B.1 aminoacylation ribozyme variant]	1.07	2.4	2.65	2.89	1.64	3.13
AUUAAACUGGUCAUCGAGUGA [Fam2.1 aminoacylation ribozyme variant]	4.94	2.71	4.15	2.42	4.35	6.94
CUACUUCUAACAAUCGCUCUG [Fam1A.1 aminoacylation ribozyme variant]	0.385	0.612	0.553	0.559	0.602	0.498
AUUCCCCUAGGUAAUCGGGUG [Fam2.2 aminoacylation ribozyme variant]	90.8	7.5	10.7	6.58	16.3	11.6
CCACACUUCUAGCAAUCGGUG [Fam1B.1 aminoacylation ribozyme variant]	19.8	2.65	3.47	2.62	4.64	3.09
CCACACUUCAACCAAGCGGUC [Fam1B.1 aminoacylation ribozyme variant]	0.838	0.95	0.914	1.08	0.761	0.613
AAGUCUGCUAAUAGUCGCCAG [Fam3.1 aminoacylation ribozyme variant]	1.8	1.1	1.34	1.32	1.04	3.43
AUUACCCUGGUCGUCGAAUGA [Fam2.1 aminoacylation ribozyme variant]	3.37	0.785	1.22	0.838	0.734	1.1
AAUCACCUAGGUCAUCGAGUG [Fam2.2 aminoacylation ribozyme variant]	7.56	3.52	3.92	2.86	4.65	3.26
AUUCACCCAGGGCAUCGGGUG [Fam2.2 aminoacylation ribozyme variant]	20	3.62	3.74	3.72	6.26	3.92
UUUCACCUAGGUCAUCUGGUG [Fam2.2 aminoacylation ribozyme variant]	9.3	1.76	1.88	1.86	2.22	2.5
AUUACCCUGGUCAUCGGUUGA [Fam2.1 aminoacylation ribozyme variant]	6.78	1.62	2	1.34	1.94	3.08
CUUCACCUAGGUCAUUGGGUG [Fam2.2 aminoacylation ribozyme variant]	12.3	1.98	2.36	2.22	2.25	2.35
AUUACCCUGAUCAUCGAGUGA [Fam2.1 aminoacylation ribozyme variant]	21.8	3.8	7.96	4.15	7.82	9.57
AAUCACCUAGGUCAUCGCGUG [Fam2.2 aminoacylation ribozyme variant]	70.6	6.41	11.3	7.32	12.1	10.4
CAGUUAGCUAAUAGUCGCAAG [Fam3.1 aminoacylation ribozyme variant]	1.67	1.21	1.17	1.32	1.04	0.96
AUUACCCUGGUUAACGAGUGA [Fam2.1 aminoacylation ribozyme variant]	106	5.85	14.1	6.35	14.4	17.3
AUUCACCCAGGUCUUCGGGUG [Fam2.2 aminoacylation ribozyme variant]	35	3.28	5.3	3.84	5.78	5.13
AAGUUUGCUAAUAGCGGCAAG [Fam3.1 aminoacylation ribozyme variant]	0.964	0.668	0.508	0.646	0.575	0.924
UUACUUCAGACAAUCGGUCUG [Fam1A.1 aminoacylation ribozyme variant]	1.73	1.14	1.11	1.12	1.3	1.12
AUUACCCUGGUUAGCGAGUGA [Fam2.1 aminoacylation ribozyme variant]	22.1	2.2	4.21	2.1	4.28	5.27
AAUCCCCUAGGUCAUCGGGUG [Fam2.2 aminoacylation ribozyme variant]	104	7.49	13.5	8.17	16.3	11.8
AAUUCUGCUAAUAGUCGCAAG [Fam3.1 aminoacylation ribozyme variant]	12.7	1.88	1.81	1.56	1.61	4.46
AUUAUCCUGGUCAUCGCGUGA [Fam2.1 aminoacylation ribozyme variant]	146	6.96	17.9	8.29	19.9	19.3

Sequence	self-aminoacylation (biotinyl-Phe-oxazolone)	self-aminoacylation (biotinyl-Ile-oxazolone)	self-aminoacylation (biotinyl-Met-oxazolone)	self-aminoacylation (biotinyl-Val-oxazolone)	self-aminoacylation (biotinyl-Leu-oxazolone)	self-aminoacylation (biotinyl-Trp-oxazolone)
CCACAUUUCCAGCAAUCGGUC [Fam1B.1 aminoacylation ribozyme variant]	1.26	2.12	1.64	2.04	2.15	1.23
AUUACCCUGGUCAUCGAGUUA [Fam2.1 aminoacylation ribozyme variant]	26.4	4.08	10.8	4.86	10.3	8.28
GCACACUUCGAGCAAUCGGUC [Fam1B.1 aminoacylation ribozyme variant]	2.2	1.87	1.9	1.81	1.46	2.86
AUUCACCUCCGUCAUCGGGUG [Fam2.2 aminoacylation ribozyme variant]	70.3	5.62	8.59	4.91	10.8	8.32
UUUACCCUGGUCAUCGCGUGA [Fam2.1 aminoacylation ribozyme variant]	128	7.82	18.9	9.57	16.9	19
CUACUUCAAACAAUUGUUCUG [Fam1A.1 aminoacylation ribozyme variant]	0.673	0.619	0.633	0.636	0.611	0.367
AUUAACGUGGUCAUCGAGUGA [Fam2.1 aminoacylation ribozyme variant]	18.6	2.95	4.88	2.75	4.72	6.07
AAGUUUGCUAAAAGCCGCAAG [Fam3.1 aminoacylation ribozyme variant]	1.42	0.613	0.604	0.689	0.63	1.08
AAGUUUGGUAACAGUCGCAAG [Fam3.1 aminoacylation ribozyme variant]	1.24	1.07	0.994	0.987	0.857	0.693
AAGUUUGCUACUAGUCGCCAG [Fam3.1 aminoacylation ribozyme variant]	0.986	1.27	1.26	1.1	0.749	1.91
AUUUACCUAGCUCAUCGGGUG [Fam2.2 aminoacylation ribozyme variant]	8.53	2.01	2.16	2.4	2.58	2.04
CCACACUUCAAGCAAUCCGCC [Fam1B.1 aminoacylation ribozyme variant]	0.939	0.873	1.16	1.64	1.02	0.899
UCACAAUUCAAGCAAUCGGUC [Fam1B.1 aminoacylation ribozyme variant]	1.8	1.04	0.989	0.986	0.949	1.39
AAGUUUGCUGAGAGUCGCAAG [Fam3.1 aminoacylation ribozyme variant]	1.91	0.969	1.01	0.873	1.03	1.18
CAACACUUCAAGCAAACGGUC [Fam1B.1 aminoacylation ribozyme variant]	0.797	0.92	0.678	0.815	0.68	0.739
AUGUUUGGUAAUAGUCGCAAG [Fam3.1 aminoacylation ribozyme variant]	3.16	1.92	1.79	1.51	1.84	2.15
CCACACUUAAAGCACUCGGUC [Fam1B.1 aminoacylation ribozyme variant]	0.788	1.16	0.856	1.11	0.924	0.732
AAGUUUGCUAAGAAUCGCAAG [Fam3.1 aminoacylation ribozyme variant]	0.824	0.583	0.503	0.58	0.521	0.588
CCGCACUUCAAGCAAUCGGUG [Fam1B.1 aminoacylation ribozyme variant]	55.1	5.07	7.36	5.59	10.3	8.54
AUUCACCUAGGUCAGCGAGUG [Fam2.2 aminoacylation ribozyme variant]	25.3	3.44	4.93	3.34	6.37	5.84
CCACACUUCAAGUAUUCGGUC [Fam1B.1 aminoacylation ribozyme variant]	0.932	1.63	1.42	1.64	1.39	1.52
CCACACCUCAAGCAAUCGGUU [Fam1B.1 aminoacylation ribozyme variant]	0.882	1.43	1.14	2.1	1.98	1.57
GUGCUUCAAACAAUCGGUCUG [Fam1A.1 aminoacylation ribozyme variant]	195	2.57	2.69	2.39	4.85	79.6
AUACACCUAGGGCAUCGGGUG [Fam2.2 aminoacylation ribozyme variant]	17.1	2.99	2.83	2.43	3.71	4.14
AUUACCCUGGUCAUCCAUUGA [Fam2.1 aminoacylation ribozyme variant]	1.15	1.08	0.84	1.08	1.14	0.684
